# Reference: article PMC9352680, “A comprehensive thermodynamic model for RNA binding by the Saccharomyces cerevisiae Pumilio protein PUF4”
# Numbering of substitutions follows the chain as printed. Names may count otherwise.
# T1: PUF4 RNA-binding domain (Saccharomyces cerevisiae, UniProt P25339 537-888)
# T1 sequence: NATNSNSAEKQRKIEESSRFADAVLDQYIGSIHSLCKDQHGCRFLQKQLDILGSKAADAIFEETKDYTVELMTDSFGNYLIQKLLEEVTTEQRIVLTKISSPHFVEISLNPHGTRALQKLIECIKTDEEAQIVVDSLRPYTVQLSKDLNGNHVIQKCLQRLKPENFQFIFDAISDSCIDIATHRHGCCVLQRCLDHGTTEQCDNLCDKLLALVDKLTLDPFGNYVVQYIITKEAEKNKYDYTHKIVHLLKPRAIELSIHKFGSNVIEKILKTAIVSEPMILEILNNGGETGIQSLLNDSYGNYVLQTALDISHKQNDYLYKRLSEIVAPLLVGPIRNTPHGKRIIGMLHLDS
# B1: Ic_S2_P5E.1_K5.1_C5.1_H5.1_A5.1_[T5C]_[T6A]_F5.1_[T9C]_[A10T]_T5.1 (ssRNA)
# RNA: UUUGAUUAAUAUGAUAUCGUUCUUUCUUGUACAAUCUUUCUUUCUCGAUAUCAUAUUAAUCUUU
# B2: Ic_S2_P5E.1_K5.1_C5.1_H5.1_A5.1_[T5C]_[A7T]_F5.1_[T8G]_[A10T]_T5.1 (ssRNA)
# RNA: B1 RNA with A33U, A34U, U35G, C36U
# B3: Ic_S2_P5E.1_K5.1_C5.1_H5.1_A5.1_[T6A]_[A7C]_F5.1_[T8C]_[T9C]_[A10G]_T5.1 (ssRNA)
# RNA: B1 RNA with C32U, A34C, U35C, U37G
# B4: Ic_S2_P5E.1_K5.1_C5.1_H5.1_A5.1_[T5A]_F5.1_[T8A]_[A10G]_T5.1 (ssRNA)
# RNA: B1 RNA with C32A, A33U, U35A, C36U, U37G
# B5: Ic_S2_P5E.1_K5.1_C5.1_H5.1_A5.1_[T5G]_[T6C]_[A7T]_F5.1_[T8C]_[T9G]_[A10T]_T5.1 (ssRNA)
# RNA: B1 RNA with C32G, A33C, A34U, U35C, C36G
# B6: Ic_S2_P5E.1_K5.1_C5.1_H5.1_A5.1_[T5G]_[T6C]_F5.1_[T8C]_[A10T]_T5.1 (ssRNA)
# RNA: B1 RNA with C32G, A33C, U35C, C36U
# B7: Ic_S2_P5E.1_K5.1_C5.1_H5.1_A5.1_[T5C]_[T6C]_F5.1_[T8C]_[T9C]_[A10G]_T5.1 (ssRNA)
# RNA: B1 RNA with A33C, U35C, U37G
# B8: Ic_S2_P5E.1_K5.1_C5.1_H5.1_A5.1_[T5A]_[A7C]_F5.1_[T8C]_[T9G]_[A10C]_T5.1 (ssRNA)
# RNA: B1 RNA with C32A, A33U, A34C, U35C, C36G, U37C
# B9: Ic_S2_P5E.1_K5.1_C5.1_H5.1_A5.1_[T6C]_[A7T]_F5.1_[T9C]_[A10C]_T5.1 (ssRNA)
# RNA: B1 RNA with C32U, A33C, A34U, U37C
# B10: Ic_S2_P5E.1_K5.1_C5.1_H5.1_A5.1_[T5C]_[A7T]_F5.1_[T8C]_[T9C]_[A10C]_T5.1 (ssRNA)
# RNA: B1 RNA with A33U, A34U, U35C, U37C
# B11: Ic_S2_P5E.1_K5.1_C5.1_H5.1_A5.1_[T6C]_[A7C]_F5.1_[T9A]_[A10T]_T5.1 (ssRNA)
# RNA: B1 RNA with C32U, A33C, A34C, C36A
# B12: Ic_S2_P5E.1_K5.1_C5.1_H5.1_A5.1_[T5C]_[T6C]_[A7C]_F5.1_[A10T]_T5.1 (ssRNA)
# RNA: B1 RNA with A33C, A34C, C36U
# B13: Ic_S2_P5E.1_K5.1_C5.1_H5.1_A5.1_[T5C]_[A7C]_F5.1_[A10T]_T5.1 (ssRNA)
# RNA: B1 RNA with A33U, A34C, C36U
# B14: Ic_S2_P5E.1_K5.1_C5.1_H5.1_A5.1_[T6C]_[A7T]_F5.1_[T9A]_[A10T]_T5.1 (ssRNA)
# RNA: B1 RNA with C32U, A33C, A34U, C36A
# B15: Ic_S2_P5E.1_K5.1_C5.1_H5.1_A5.1_[T5A]_[T6C]_[A7C]_F5.1_[T8G]_T5.1 (ssRNA)
# RNA: B1 RNA with C32A, A33C, A34C, U35G, C36U, U37A
# B16: Ic_S2_P5E.1_K5.1_C5.1_H5.1_A5.1_[T5C]_[A7T]_F5.1_[T8A]_[T9C]_[A10G]_T5.1 (ssRNA)
# RNA: B1 RNA with A33U, A34U, U35A, U37G
# B17: Ic_S2_P5E.1_K5.1_C5.1_H5.1_A5.1_[T5A]_[T6C]_[A7G]_F5.1_[T8G]_[T9C]_[A10C]_T5.1 (ssRNA)
# RNA: B1 RNA with C32A, A33C, A34G, U35G, U37C
# B18: Ic_S2_P5E.1_K5.1_C5.1_H5.1_A5.1_[T5G]_[T6C]_[A7T]_F5.1_[T8G]_[T9G]_[A10T]_T5.1 (ssRNA)
# RNA: B1 RNA with C32G, A33C, A34U, U35G, C36G
# B19: Ic_S2_P5E.1_K5.1_C5.1_H5.1_A5.1_[T5C]_[T6A]_[A7T]_F5.1_[T8A]_[T9G]_[A10T]_T5.1 (ssRNA)
# RNA: B1 RNA with A34U, U35A, C36G
# B20: Ic_S2_P5E.1_K5.1_C5.1_H5.1_A5.1_[T5G]_F5.1_[T8C]_[T9C]_[A10T]_T5.1 (ssRNA)
# RNA: B1 RNA with C32G, A33U, U35C
# B21: Ic_S2_P5E.1_K5.1_C5.1_H5.1_A5.1_[T6A]_[A7C]_F5.1_[T8C]_[T9G]_[A10G]_T5.1 (ssRNA)
# RNA: B1 RNA with C32U, A34C, U35C, C36G, U37G
# B22: Ic_S2_P5E.1_K5.1_C5.1_H5.1_A5.1_[T6C]_[A7G]_F5.1_[T8C]_[T9C]_[A10T]_T5.1 (ssRNA)
# RNA: B1 RNA with C32U, A33C, A34G, U35C
# B23: Ic_S2_P5E.1_K5.1_C5.1_H5.1_A5.1_[T5C]_[A7C]_F5.1_[T8C]_[T9C]_[A10T]_T5.1 (ssRNA)
# RNA: B1 RNA with A33U, A34C, U35C
# B24: Ic_S2_P5E.1_K5.1_C5.1_H5.1_A5.1_[T5A]_[A7C]_F5.1_[T9A]_T5.1 (ssRNA)
# RNA: B1 RNA with C32A, A33U, A34C, C36A, U37A
# B25: Ic_S2_P5E.1_K5.1_C5.1_H5.1_A5.1_[T5C]_[T6G]_[A7T]_F5.1_[T8C]_[A10G]_T5.1 (ssRNA)
# RNA: B1 RNA with A33G, A34U, U35C, C36U, U37G
# B26: Ic_S2_P5E.1_K5.1_C5.1_H5.1_A5.1_[T6A]_[A7T]_F5.1_[T8C]_[T9A]_[A10G]_T5.1 (ssRNA)
# RNA: B1 RNA with C32U, A34U, U35C, C36A, U37G
# B27: Ic_S2_P5E.1_K5.1_C5.1_H5.1_A5.1_[T6C]_F5.1_[T8A]_[A10G]_T5.1 (ssRNA)
# RNA: B1 RNA with C32U, A33C, U35A, C36U, U37G
# B28: Ic_S2_P5E.1_K5.1_C5.1_H5.1_A5.1_[T5G]_[A7G]_F5.1_[T8C]_[T9C]_T5.1 (ssRNA)
# RNA: B1 RNA with C32G, A33U, A34G, U35C, U37A
# Biological target: T1, PUF4 RNA-binding domain
# Assay: Mg; RNA-MaP; 20 mM Na-HEPES pH 7.4, 30 mM KOAc, 0.75 mM MgCl2, 0.1% Tween-20, 5% glycerol, 0.1 mg/mL BSA, 2 mM DTT; 25 C; 0.0125-409.6 nM protein
# Conditions: tags: N-His6-TEV cleaved; C-SNAP kept, Cy3B-labelled; label: tethered on chip by stalled RNA polymerase
row,Binder,Kd
1,UCUCUUCGUAUAUUUUCUCUU (ssRNA) [Ib_S1_P4E.1_K4.1_C4.1_H4.1_[T1C]_A4.1_F4.1_[A9T]_T4.1],1420 nM
2,B1,7.59 nM
3,B2,28.3 nM
4,B3,69.2 nM
5,B4,183 nM
6,B5,275 nM
7,B6,99.7 nM
8,B7,619 nM
9,B8,1200 nM
10,B9,14 nM
11,B10,149 nM
12,B11,1.14 nM
13,B12,8.63 nM
14,B13,8.52 nM
15,B14,1.53 nM
16,B15,12.9 nM
17,B16,623 nM
18,B17,> 2300 nM
19,B18,679 nM
20,B19,5.17 nM
21,B20,413 nM
22,B21,82 nM
23,B22,463 nM
24,B23,104 nM
25,B24,8.11 nM
26,B25,1250 nM
27,B26,24.5 nM
28,B27,122 nM
29,B28,983 nM
